The source of these data is patent publication US20250218531A1 (ABSCI, published 2025).

This assay concerns the target T1, HER2 (human epidermal growth factor receptor 2) (human, UniProt P04626 23-629).
T1 construct: also called Antigen: HER2
Description: SPR.

B1: Trastuzumab HCDR3 variant TRYGSFHYYYFDV (Fab, V domains shown)
VH: EVQLVESGGGLVQPGGSLRLSCAASGFNIKDTYIHWVRQAPGKGLEWVARIYPTNGYTRYADSVKGRFTISADTSKNTAYLQMNSLRAEDTAVYYCTRYGSFHYYYFDVWGQGTLVTVSS
VL: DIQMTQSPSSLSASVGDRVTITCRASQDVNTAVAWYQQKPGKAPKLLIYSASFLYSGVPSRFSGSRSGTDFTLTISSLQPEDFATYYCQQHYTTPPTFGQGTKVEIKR
Usually Kd stands for the concentration at which binding is half-saturated. Lower therefore signals a tighter complex. In the case of B1, binding was put at a Kd of 8.73 nM and the “log(KD (M))” value is -8.06.

B2: Trastuzumab HCDR3 variant VRYGFDGSYYFDP (Fab, V domains shown)
VH: EVQLVESGGGLVQPGGSLRLSCAASGFNIKDTYIHWVRQAPGKGLEWVARIYPTNGYTRYADSVKGRFTISADTSKNTAYLQMNSLRAEDTAVYYCVRYGFDGSYYFDPWGQGTLVTVSS
VL: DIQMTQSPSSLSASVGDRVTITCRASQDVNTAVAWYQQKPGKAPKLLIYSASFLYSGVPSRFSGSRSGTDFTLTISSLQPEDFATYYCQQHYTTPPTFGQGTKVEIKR
In the case of B2, the affinity, expressed as Kd, was 13.2 nM and the “log(KD (M))” value was -7.88.

B3: Trastuzumab HCDR3 variant VRYGYGDYYYFDY (Fab, V domains shown)
VH: EVQLVESGGGLVQPGGSLRLSCAASGFNIKDTYIHWVRQAPGKGLEWVARIYPTNGYTRYADSVKGRFTISADTSKNTAYLQMNSLRAEDTAVYYCVRYGYGDYYYFDYWGQGTLVTVSS
VL: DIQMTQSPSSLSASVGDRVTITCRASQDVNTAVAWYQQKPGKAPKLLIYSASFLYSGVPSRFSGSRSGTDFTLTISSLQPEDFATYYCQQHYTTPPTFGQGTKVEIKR
Consider B3, for which binding was put at a Kd of 25.1 nM and the “log(KD (M))” value is -7.6.

B4: Trastuzumab HCDR3 variant VRYGFYGYYYFDY (Fab, V domains shown)
VH: EVQLVESGGGLVQPGGSLRLSCAASGFNIKDTYIHWVRQAPGKGLEWVARIYPTNGYTRYADSVKGRFTISADTSKNTAYLQMNSLRAEDTAVYYCVRYGFYGYYYFDYWGQGTLVTVSS
VL: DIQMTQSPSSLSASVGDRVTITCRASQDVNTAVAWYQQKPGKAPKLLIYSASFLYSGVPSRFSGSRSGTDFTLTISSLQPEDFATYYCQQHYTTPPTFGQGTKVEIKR
For the molecule B4, the Kd came out at 16.5 nM and the “log(KD (M))” value was -7.78.

B5: Trastuzumab HCDR3 variant VRYGSDVYYYFDI (Fab, V domains shown)
VH: EVQLVESGGGLVQPGGSLRLSCAASGFNIKDTYIHWVRQAPGKGLEWVARIYPTNGYTRYADSVKGRFTISADTSKNTAYLQMNSLRAEDTAVYYCVRYGSDVYYYFDIWGQGTLVTVSS
VL: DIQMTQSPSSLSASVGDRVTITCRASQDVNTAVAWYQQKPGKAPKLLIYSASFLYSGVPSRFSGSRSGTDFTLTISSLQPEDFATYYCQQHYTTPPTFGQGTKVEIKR
For the molecule B5, the Kd was found to be 19.9 nM and the “log(KD (M))” value is -7.7.

B6: Trastuzumab HCDR3 variant TRYGYGGPYWFDY (Fab, V domains shown)
VH: EVQLVESGGGLVQPGGSLRLSCAASGFNIKDTYIHWVRQAPGKGLEWVARIYPTNGYTRYADSVKGRFTISADTSKNTAYLQMNSLRAEDTAVYYCTRYGYGGPYWFDYWGQGTLVTVSS
VL: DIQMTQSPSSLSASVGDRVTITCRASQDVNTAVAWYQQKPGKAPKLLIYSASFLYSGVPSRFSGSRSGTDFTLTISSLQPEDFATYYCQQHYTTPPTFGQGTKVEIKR
Consider B6, for which the Kd stood at 14.3 nM and the “log(KD (M))” value was -7.84.

B7: Trastuzumab HCDR3 variant TSIFSGGYYGLDS (Fab, V domains shown)
VH: EVQLVESGGGLVQPGGSLRLSCAASGFNIKDTYIHWVRQAPGKGLEWVARIYPTNGYTRYADSVKGRFTISADTSKNTAYLQMNSLRAEDTAVYYCTSIFSGGYYGLDSWGQGTLVTVSS
VL: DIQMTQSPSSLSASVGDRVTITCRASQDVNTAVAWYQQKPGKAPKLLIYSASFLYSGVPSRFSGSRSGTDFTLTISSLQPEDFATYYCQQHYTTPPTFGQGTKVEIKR
Turning to B7, the Kd was 8.57 nM and the “log(KD (M))” value was -8.07.

B8: Trastuzumab HCDR3 variant TRYLHDYYYYFDY (Fab, V domains shown)
VH: EVQLVESGGGLVQPGGSLRLSCAASGFNIKDTYIHWVRQAPGKGLEWVARIYPTNGYTRYADSVKGRFTISADTSKNTAYLQMNSLRAEDTAVYYCTRYLHDYYYYFDYWGQGTLVTVSS
VL: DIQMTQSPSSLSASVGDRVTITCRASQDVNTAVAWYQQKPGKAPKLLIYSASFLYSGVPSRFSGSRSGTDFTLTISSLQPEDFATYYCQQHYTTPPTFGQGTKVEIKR
B8: the Kd is 22.7 nM and the “log(KD (M))” value is -7.64.

B9: Trastuzumab HCDR3 variant TRYRGPYYYYFDP (Fab, V domains shown)
VH: EVQLVESGGGLVQPGGSLRLSCAASGFNIKDTYIHWVRQAPGKGLEWVARIYPTNGYTRYADSVKGRFTISADTSKNTAYLQMNSLRAEDTAVYYCTRYRGPYYYYFDPWGQGTLVTVSS
VL: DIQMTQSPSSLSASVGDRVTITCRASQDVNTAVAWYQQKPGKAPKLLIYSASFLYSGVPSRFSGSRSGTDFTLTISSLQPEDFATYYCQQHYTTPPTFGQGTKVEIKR
Turning to B9, the Kd stood at 12.1 nM and the “log(KD (M))” value is -7.92.

B10: Trastuzumab HCDR3 variant VRYYGDGGYYFDY (Fab, V domains shown)
VH: EVQLVESGGGLVQPGGSLRLSCAASGFNIKDTYIHWVRQAPGKGLEWVARIYPTNGYTRYADSVKGRFTISADTSKNTAYLQMNSLRAEDTAVYYCVRYYGDGGYYFDYWGQGTLVTVSS
VL: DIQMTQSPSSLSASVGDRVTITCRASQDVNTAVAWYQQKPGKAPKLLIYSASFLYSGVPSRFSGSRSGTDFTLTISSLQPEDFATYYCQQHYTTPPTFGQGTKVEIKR
Regarding B10, binding was put at a Kd of 5.35 nM and the “log(KD (M))” value was -8.27.

B11: Trastuzumab HCDR3 variant VRWGVGAYYNFDY (Fab, V domains shown)
VH: EVQLVESGGGLVQPGGSLRLSCAASGFNIKDTYIHWVRQAPGKGLEWVARIYPTNGYTRYADSVKGRFTISADTSKNTAYLQMNSLRAEDTAVYYCVRWGVGAYYNFDYWGQGTLVTVSS
VL: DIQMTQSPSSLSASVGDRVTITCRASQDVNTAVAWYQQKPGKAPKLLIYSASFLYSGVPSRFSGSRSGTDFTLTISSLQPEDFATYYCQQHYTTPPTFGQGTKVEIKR
As to B11, the Kd turned out to be 12.1 nM and the “log(KD (M))” value was -7.92.

B12: Trastuzumab HCDR3 variant TRYYYYGSYHFDY (Fab, V domains shown)
VH: EVQLVESGGGLVQPGGSLRLSCAASGFNIKDTYIHWVRQAPGKGLEWVARIYPTNGYTRYADSVKGRFTISADTSKNTAYLQMNSLRAEDTAVYYCTRYYYYGSYHFDYWGQGTLVTVSS
VL: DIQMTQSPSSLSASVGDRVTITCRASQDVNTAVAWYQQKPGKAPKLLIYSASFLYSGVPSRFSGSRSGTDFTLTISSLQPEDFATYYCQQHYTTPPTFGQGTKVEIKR
Take B12: the Kd was found to be 6.82 nM and the “log(KD (M))” value is -8.17.

B13: Trastuzumab HCDR3 variant VRYFYDGNYYFDL (Fab, V domains shown)
VH: EVQLVESGGGLVQPGGSLRLSCAASGFNIKDTYIHWVRQAPGKGLEWVARIYPTNGYTRYADSVKGRFTISADTSKNTAYLQMNSLRAEDTAVYYCVRYFYDGNYYFDLWGQGTLVTVSS
VL: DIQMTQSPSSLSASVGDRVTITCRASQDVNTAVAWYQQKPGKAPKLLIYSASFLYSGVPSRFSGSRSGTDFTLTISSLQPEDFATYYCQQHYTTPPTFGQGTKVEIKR
In the case of B13, the Kd was found to be 22.9 nM and the “log(KD (M))” value is -7.64.

B14: Trastuzumab HCDR3 variant VRYGGWGFWYFDY (Fab, V domains shown)
VH: EVQLVESGGGLVQPGGSLRLSCAASGFNIKDTYIHWVRQAPGKGLEWVARIYPTNGYTRYADSVKGRFTISADTSKNTAYLQMNSLRAEDTAVYYCVRYGGWGFWYFDYWGQGTLVTVSS
VL: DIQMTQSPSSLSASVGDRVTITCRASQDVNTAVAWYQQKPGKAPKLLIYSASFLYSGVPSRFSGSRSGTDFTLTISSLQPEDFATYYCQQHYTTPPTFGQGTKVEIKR
For B14, binding was characterised by a dissociation constant (Kd) of 6.76 nM and the “log(KD (M))” value is -8.17.

B15: Trastuzumab HCDR3 variant ARYGGGYNMDY (Fab, V domains shown)
VH: EVQLVESGGGLVQPGGSLRLSCAASGFNIKDTYIHWVRQAPGKGLEWVARIYPTNGYTRYADSVKGRFTISADTSKNTAYLQMNSLRAEDTAVYYCARYGGGYNMDYWGQGTLVTVSS
VL: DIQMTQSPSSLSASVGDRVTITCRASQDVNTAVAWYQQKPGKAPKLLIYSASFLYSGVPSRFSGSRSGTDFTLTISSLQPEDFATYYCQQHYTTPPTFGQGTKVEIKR
As for B15, the Kd came out at 14.3 nM and the “log(KD (M))” value was -7.84.

B16: Trastuzumab HCDR3 variant TRWGGYYYFDY (Fab, V domains shown)
VH: EVQLVESGGGLVQPGGSLRLSCAASGFNIKDTYIHWVRQAPGKGLEWVARIYPTNGYTRYADSVKGRFTISADTSKNTAYLQMNSLRAEDTAVYYCTRWGGYYYFDYWGQGTLVTVSS
VL: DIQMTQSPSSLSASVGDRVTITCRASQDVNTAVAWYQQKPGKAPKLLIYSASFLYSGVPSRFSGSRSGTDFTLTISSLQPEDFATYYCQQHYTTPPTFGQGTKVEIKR
B16: the Kd worked out at 9.79 nM and the “log(KD (M))” value is -8.01.

B17: Trastuzumab HCDR3 variant VRFYYDYYFDY (Fab, V domains shown)
VH: EVQLVESGGGLVQPGGSLRLSCAASGFNIKDTYIHWVRQAPGKGLEWVARIYPTNGYTRYADSVKGRFTISADTSKNTAYLQMNSLRAEDTAVYYCVRFYYDYYFDYWGQGTLVTVSS
VL: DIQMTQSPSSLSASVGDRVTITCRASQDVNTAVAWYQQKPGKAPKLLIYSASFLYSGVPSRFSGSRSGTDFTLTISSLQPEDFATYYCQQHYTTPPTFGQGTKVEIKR
On to B17, for which binding was put at a Kd of 26.9 nM and the “log(KD (M))” value is -7.57.

B18: Trastuzumab HCDR3 variant APYGPGYWYGV (Fab, V domains shown)
VH: EVQLVESGGGLVQPGGSLRLSCAASGFNIKDTYIHWVRQAPGKGLEWVARIYPTNGYTRYADSVKGRFTISADTSKNTAYLQMNSLRAEDTAVYYCAPYGPGYWYGVWGQGTLVTVSS
VL: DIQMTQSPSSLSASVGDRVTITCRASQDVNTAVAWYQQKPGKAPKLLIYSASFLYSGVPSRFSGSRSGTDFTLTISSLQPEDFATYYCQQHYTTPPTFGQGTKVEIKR
B18: the Kd stood at 9.15 nM and the “log(KD (M))” value is -8.04.

B19: Trastuzumab HCDR3 variant ARWYVSYDYDV (Fab, V domains shown)
VH: EVQLVESGGGLVQPGGSLRLSCAASGFNIKDTYIHWVRQAPGKGLEWVARIYPTNGYTRYADSVKGRFTISADTSKNTAYLQMNSLRAEDTAVYYCARWYVSYDYDVWGQGTLVTVSS
VL: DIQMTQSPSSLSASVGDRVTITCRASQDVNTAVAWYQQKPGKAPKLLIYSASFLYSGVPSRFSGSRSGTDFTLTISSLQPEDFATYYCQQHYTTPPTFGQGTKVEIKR
In the case of B19, the Kd worked out at 17.6 nM and the “log(KD (M))” value was -7.75.

B20: Trastuzumab HCDR3 variant TRYGLTFDMDY (Fab, V domains shown)
VH: EVQLVESGGGLVQPGGSLRLSCAASGFNIKDTYIHWVRQAPGKGLEWVARIYPTNGYTRYADSVKGRFTISADTSKNTAYLQMNSLRAEDTAVYYCTRYGLTFDMDYWGQGTLVTVSS
VL: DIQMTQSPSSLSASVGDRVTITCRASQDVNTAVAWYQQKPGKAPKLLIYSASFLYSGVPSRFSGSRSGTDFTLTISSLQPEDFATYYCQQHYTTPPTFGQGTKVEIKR
With B20, binding was characterised by a dissociation constant (Kd) of 13.9 nM and the “log(KD (M))” value is -7.86.

B21: Trastuzumab HCDR3 variant ARWEDYYYMDY (Fab, V domains shown)
VH: EVQLVESGGGLVQPGGSLRLSCAASGFNIKDTYIHWVRQAPGKGLEWVARIYPTNGYTRYADSVKGRFTISADTSKNTAYLQMNSLRAEDTAVYYCARWEDYYYMDYWGQGTLVTVSS
VL: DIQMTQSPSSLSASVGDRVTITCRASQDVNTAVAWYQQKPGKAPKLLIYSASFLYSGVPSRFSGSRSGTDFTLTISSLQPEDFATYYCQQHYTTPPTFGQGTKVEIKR
Regarding B21, the Kd stood at 21.8 nM and the “log(KD (M))” value is -7.66.
